B1: library; numbered along this chain (parent)
chain: MRKPRAAVGSGHRKQAASQEGRQKHAKNNSQAKPSACDGLARQPEEVVLQASVSSYHLFRDVAEVTAFRGSLLSWYDQEKRDLPWRRRAEDEMDLDRRAYAVWVSEVMLQQTQVATVINYYTGWMQKWPTLQDLASASLEEVNQLWAGLGYYSRGRRLQEGARKVVEELGGHMPRTAETLQQLLPGVGRYTAGAIASIAFGQATGVVDGNVARVLCRVRAIGADPSSTLVSQQLWGLAQQLVDPARPGDFNQAAMELGATVCTPQRPLCSQCPVESLCRARQRVEQEQLLASGSLSGSPDVEECAPNTGQCHLCLPPSEPWDQTLGVVNFPRKASRKPPREESSATCVLEQPGALGAQILLVQRPNSGLLAGLWEFPSVTWEPSEQLQRKALLQELQRWAGPLPATHLRHLGEVVHTFSHIKLTYQVYGLALEGQTPVTTVPPGARWLTQEEFHTAAVSTAMKKVFRVYQGQQPGTCMGSKRSQVSSPCSRKKPRMGQQVLDNFFRSHISTDAHSLNSAAQ

Variants of: B1
Assay: 8OG:A repair function score (normalized; synonymous = 0, nonsense = -1) (normalized log-likelihood score); higher = more repair activity (WT-like)
Conditions: with 8OG:A DNA repair reporter (GFP) in HEK-293 MUTYH KO cells
Outline: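 After 72 h, viable mCherry+ cells were split into GFP+ (repair) and GFP− bins in three replicates per tile. These cells were MUTYH knockout HEK-293 cells holding lentiviral MUTYH cDNA NNN codon-scan libraries, kept in 10 pg/ml doxycycline and co-transfected with mCherry plus an 8OG:A GFP repair reporter. Sequencing of tile amplicons gave per-tile Rosace fitness scores, normalized into a repair function score anchored on synonymous and nonsense distributions. Synonymous medians were fixed at 0, nonsense at -1, and variants under 300 counts per million at the start were removed.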
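Also: cells sorted at 72 h after reporter transfection.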

Row | Variant | 8OG:A repair function score
1 | MRKPRAAVGSGHRKQAASQEGRQKHAKNNSQAKPSACDGLARQPEEVVLQASVSSYHLFRDVAEVTAFRGSLLSWYDQEKRDLPWRRRAEDEMDLDRRAYAVWVSEVMLQQTQVATVINYYTGWMQKWPTLQDLASASLEEVNQLWAGLGYYSRGRRLQEGARKVVEELGGHMPRTAETLQQLLPGVGRYTAGAIASIAFGQATGVVDGNVARVLCRVRAIGADPSSTLVSQQLWGLAQQLVDPARPGDFNQAAMELGATVCTPQRPLCSQCPVESLCRARQRVEQEQLLASGSLSGSPDVEECAPNTGQCHLCLPPSEPWDYTLGVVNFPRKASRKPPREESSATCVLEQPGALGAQILLVQRPNSGLLAGLWEFPSVTWEPSEQLQRKALLQELQRWAGPLPATHLRHLGEVVHTFSHIKLTYQVYGLALEGQTPVTTVPPGARWLTQEEFHTAAVSTAMKKVFRVYQGQQPGTCMGSKRSQVSSPCSRKKPRMGQQVLDNFFRSHISTDAHSLNSAAQ [Q323Y] | -0.013
2 | MRKPRAAVGSGHRKQAASQEGRQKHAKNNSQAKPSACDGLARQPEEVVLQASVSSYHLFRDVAEVTAFRGSLLSWYDQEKRDLPWRRRAEDEMDLDRRAYAVWVSEVMLQQTQVATVINYYTGWMQKWPTLQDLASASLEEVNQLWAGLGYYSRGRRLQEGARKVVEELGGHMPRTAETLQQLLPGVGRYTAGAIASIAFGQATGVVDGNVARVLCRVRAIGADPSSTLVSQQLWGLAQQLVDPARPGDFNQAAMELGATVCTPQRPLCSQCPVESLCRARQRVEQEQLLASGSLSGSPDVEECAPNTGQCHLCLPPSEPWDQALGVVNFPRKASRKPPREESSATCVLEQPGALGAQILLVQRPNSGLLAGLWEFPSVTWEPSEQLQRKALLQELQRWAGPLPATHLRHLGEVVHTFSHIKLTYQVYGLALEGQTPVTTVPPGARWLTQEEFHTAAVSTAMKKVFRVYQGQQPGTCMGSKRSQVSSPCSRKKPRMGQQVLDNFFRSHISTDAHSLNSAAQ [T324A] | -0.0315
3 | MRKPRAAVGSGHRKQAASQEGRQKHAKNNSQAKPSACDGLARQPEEVVLQASVSSYHLFRDVAEVTAFRGSLLSWYDQEKRDLPWRRRAEDEMDLDRRAYAVWVSEVMLQQTQVATVINYYTGWMQKWPTLQDLASASLEEVNQLWAGLGYYSRGRRLQEGARKVVEELGGHMPRTAETLQQLLPGVGRYTAGAIASIAFGQATGVVDGNVARVLCRVRAIGADPSSTLVSQQLWGLAQQLVDPARPGDFNQAAMELGATVCTPQRPLCSQCPVESLCRARQRVEQEQLLASGSLSGSPDVEECAPNTGQCHLCLPPSEPWDQHLGVVNFPRKASRKPPREESSATCVLEQPGALGAQILLVQRPNSGLLAGLWEFPSVTWEPSEQLQRKALLQELQRWAGPLPATHLRHLGEVVHTFSHIKLTYQVYGLALEGQTPVTTVPPGARWLTQEEFHTAAVSTAMKKVFRVYQGQQPGTCMGSKRSQVSSPCSRKKPRMGQQVLDNFFRSHISTDAHSLNSAAQ [T324H] | -0.0241
4 | MRKPRAAVGSGHRKQAASQEGRQKHAKNNSQAKPSACDGLARQPEEVVLQASVSSYHLFRDVAEVTAFRGSLLSWYDQEKRDLPWRRRAEDEMDLDRRAYAVWVSEVMLQQTQVATVINYYTGWMQKWPTLQDLASASLEEVNQLWAGLGYYSRGRRLQEGARKVVEELGGHMPRTAETLQQLLPGVGRYTAGAIASIAFGQATGVVDGNVARVLCRVRAIGADPSSTLVSQQLWGLAQQLVDPARPGDFNQAAMELGATVCTPQRPLCSQCPVESLCRARQRVEQEQLLASGSLSGSPDVEECAPNTGQCHLCLPPSEPWDQILGVVNFPRKASRKPPREESSATCVLEQPGALGAQILLVQRPNSGLLAGLWEFPSVTWEPSEQLQRKALLQELQRWAGPLPATHLRHLGEVVHTFSHIKLTYQVYGLALEGQTPVTTVPPGARWLTQEEFHTAAVSTAMKKVFRVYQGQQPGTCMGSKRSQVSSPCSRKKPRMGQQVLDNFFRSHISTDAHSLNSAAQ [T324I] | -0.0894
5 | MRKPRAAVGSGHRKQAASQEGRQKHAKNNSQAKPSACDGLARQPEEVVLQASVSSYHLFRDVAEVTAFRGSLLSWYDQEKRDLPWRRRAEDEMDLDRRAYAVWVSEVMLQQTQVATVINYYTGWMQKWPTLQDLASASLEEVNQLWAGLGYYSRGRRLQEGARKVVEELGGHMPRTAETLQQLLPGVGRYTAGAIASIAFGQATGVVDGNVARVLCRVRAIGADPSSTLVSQQLWGLAQQLVDPARPGDFNQAAMELGATVCTPQRPLCSQCPVESLCRARQRVEQEQLLASGSLSGSPDVEECAPNTGQCHLCLPPSEPWDQMLGVVNFPRKASRKPPREESSATCVLEQPGALGAQILLVQRPNSGLLAGLWEFPSVTWEPSEQLQRKALLQELQRWAGPLPATHLRHLGEVVHTFSHIKLTYQVYGLALEGQTPVTTVPPGARWLTQEEFHTAAVSTAMKKVFRVYQGQQPGTCMGSKRSQVSSPCSRKKPRMGQQVLDNFFRSHISTDAHSLNSAAQ [T324M] | 0.0106
6 | MRKPRAAVGSGHRKQAASQEGRQKHAKNNSQAKPSACDGLARQPEEVVLQASVSSYHLFRDVAEVTAFRGSLLSWYDQEKRDLPWRRRAEDEMDLDRRAYAVWVSEVMLQQTQVATVINYYTGWMQKWPTLQDLASASLEEVNQLWAGLGYYSRGRRLQEGARKVVEELGGHMPRTAETLQQLLPGVGRYTAGAIASIAFGQATGVVDGNVARVLCRVRAIGADPSSTLVSQQLWGLAQQLVDPARPGDFNQAAMELGATVCTPQRPLCSQCPVESLCRARQRVEQEQLLASGSLSGSPDVEECAPNTGQCHLCLPPSEPWDQGLGVVNFPRKASRKPPREESSATCVLEQPGALGAQILLVQRPNSGLLAGLWEFPSVTWEPSEQLQRKALLQELQRWAGPLPATHLRHLGEVVHTFSHIKLTYQVYGLALEGQTPVTTVPPGARWLTQEEFHTAAVSTAMKKVFRVYQGQQPGTCMGSKRSQVSSPCSRKKPRMGQQVLDNFFRSHISTDAHSLNSAAQ [T324G] | -0.0488
7 | MRKPRAAVGSGHRKQAASQEGRQKHAKNNSQAKPSACDGLARQPEEVVLQASVSSYHLFRDVAEVTAFRGSLLSWYDQEKRDLPWRRRAEDEMDLDRRAYAVWVSEVMLQQTQVATVINYYTGWMQKWPTLQDLASASLEEVNQLWAGLGYYSRGRRLQEGARKVVEELGGHMPRTAETLQQLLPGVGRYTAGAIASIAFGQATGVVDGNVARVLCRVRAIGADPSSTLVSQQLWGLAQQLVDPARPGDFNQAAMELGATVCTPQRPLCSQCPVESLCRARQRVEQEQLLASGSLSGSPDVEECAPNTGQCHLCLPPSEPWDQELGVVNFPRKASRKPPREESSATCVLEQPGALGAQILLVQRPNSGLLAGLWEFPSVTWEPSEQLQRKALLQELQRWAGPLPATHLRHLGEVVHTFSHIKLTYQVYGLALEGQTPVTTVPPGARWLTQEEFHTAAVSTAMKKVFRVYQGQQPGTCMGSKRSQVSSPCSRKKPRMGQQVLDNFFRSHISTDAHSLNSAAQ [T324E] | -0.099
8 | MRKPRAAVGSGHRKQAASQEGRQKHAKNNSQAKPSACDGLARQPEEVVLQASVSSYHLFRDVAEVTAFRGSLLSWYDQEKRDLPWRRRAEDEMDLDRRAYAVWVSEVMLQQTQVATVINYYTGWMQKWPTLQDLASASLEEVNQLWAGLGYYSRGRRLQEGARKVVEELGGHMPRTAETLQQLLPGVGRYTAGAIASIAFGQATGVVDGNVARVLCRVRAIGADPSSTLVSQQLWGLAQQLVDPARPGDFNQAAMELGATVCTPQRPLCSQCPVESLCRARQRVEQEQLLASGSLSGSPDVEECAPNTGQCHLCLPPSEPWDQDLGVVNFPRKASRKPPREESSATCVLEQPGALGAQILLVQRPNSGLLAGLWEFPSVTWEPSEQLQRKALLQELQRWAGPLPATHLRHLGEVVHTFSHIKLTYQVYGLALEGQTPVTTVPPGARWLTQEEFHTAAVSTAMKKVFRVYQGQQPGTCMGSKRSQVSSPCSRKKPRMGQQVLDNFFRSHISTDAHSLNSAAQ [T324D] | -0.162
9 | MRKPRAAVGSGHRKQAASQEGRQKHAKNNSQAKPSACDGLARQPEEVVLQASVSSYHLFRDVAEVTAFRGSLLSWYDQEKRDLPWRRRAEDEMDLDRRAYAVWVSEVMLQQTQVATVINYYTGWMQKWPTLQDLASASLEEVNQLWAGLGYYSRGRRLQEGARKVVEELGGHMPRTAETLQQLLPGVGRYTAGAIASIAFGQATGVVDGNVARVLCRVRAIGADPSSTLVSQQLWGLAQQLVDPARPGDFNQAAMELGATVCTPQRPLCSQCPVESLCRARQRVEQEQLLASGSLSGSPDVEECAPNTGQCHLCLPPSEPWDQLLGVVNFPRKASRKPPREESSATCVLEQPGALGAQILLVQRPNSGLLAGLWEFPSVTWEPSEQLQRKALLQELQRWAGPLPATHLRHLGEVVHTFSHIKLTYQVYGLALEGQTPVTTVPPGARWLTQEEFHTAAVSTAMKKVFRVYQGQQPGTCMGSKRSQVSSPCSRKKPRMGQQVLDNFFRSHISTDAHSLNSAAQ [T324L] | -0.000813
10 | MRKPRAAVGSGHRKQAASQEGRQKHAKNNSQAKPSACDGLARQPEEVVLQASVSSYHLFRDVAEVTAFRGSLLSWYDQEKRDLPWRRRAEDEMDLDRRAYAVWVSEVMLQQTQVATVINYYTGWMQKWPTLQDLASASLEEVNQLWAGLGYYSRGRRLQEGARKVVEELGGHMPRTAETLQQLLPGVGRYTAGAIASIAFGQATGVVDGNVARVLCRVRAIGADPSSTLVSQQLWGLAQQLVDPARPGDFNQAAMELGATVCTPQRPLCSQCPVESLCRARQRVEQEQLLASGSLSGSPDVEECAPNTGQCHLCLPPSEPWDQFLGVVNFPRKASRKPPREESSATCVLEQPGALGAQILLVQRPNSGLLAGLWEFPSVTWEPSEQLQRKALLQELQRWAGPLPATHLRHLGEVVHTFSHIKLTYQVYGLALEGQTPVTTVPPGARWLTQEEFHTAAVSTAMKKVFRVYQGQQPGTCMGSKRSQVSSPCSRKKPRMGQQVLDNFFRSHISTDAHSLNSAAQ [T324F] | 0.00371
11 | MRKPRAAVGSGHRKQAASQEGRQKHAKNNSQAKPSACDGLARQPEEVVLQASVSSYHLFRDVAEVTAFRGSLLSWYDQEKRDLPWRRRAEDEMDLDRRAYAVWVSEVMLQQTQVATVINYYTGWMQKWPTLQDLASASLEEVNQLWAGLGYYSRGRRLQEGARKVVEELGGHMPRTAETLQQLLPGVGRYTAGAIASIAFGQATGVVDGNVARVLCRVRAIGADPSSTLVSQQLWGLAQQLVDPARPGDFNQAAMELGATVCTPQRPLCSQCPVESLCRARQRVEQEQLLASGSLSGSPDVEECAPNTGQCHLCLPPSEPWDQCLGVVNFPRKASRKPPREESSATCVLEQPGALGAQILLVQRPNSGLLAGLWEFPSVTWEPSEQLQRKALLQELQRWAGPLPATHLRHLGEVVHTFSHIKLTYQVYGLALEGQTPVTTVPPGARWLTQEEFHTAAVSTAMKKVFRVYQGQQPGTCMGSKRSQVSSPCSRKKPRMGQQVLDNFFRSHISTDAHSLNSAAQ [T324C] | -0.0556
12 | MRKPRAAVGSGHRKQAASQEGRQKHAKNNSQAKPSACDGLARQPEEVVLQASVSSYHLFRDVAEVTAFRGSLLSWYDQEKRDLPWRRRAEDEMDLDRRAYAVWVSEVMLQQTQVATVINYYTGWMQKWPTLQDLASASLEEVNQLWAGLGYYSRGRRLQEGARKVVEELGGHMPRTAETLQQLLPGVGRYTAGAIASIAFGQATGVVDGNVARVLCRVRAIGADPSSTLVSQQLWGLAQQLVDPARPGDFNQAAMELGATVCTPQRPLCSQCPVESLCRARQRVEQEQLLASGSLSGSPDVEECAPNTGQCHLCLPPSEPWDQKLGVVNFPRKASRKPPREESSATCVLEQPGALGAQILLVQRPNSGLLAGLWEFPSVTWEPSEQLQRKALLQELQRWAGPLPATHLRHLGEVVHTFSHIKLTYQVYGLALEGQTPVTTVPPGARWLTQEEFHTAAVSTAMKKVFRVYQGQQPGTCMGSKRSQVSSPCSRKKPRMGQQVLDNFFRSHISTDAHSLNSAAQ [T324K] | 0.056

From the supplement of paper PMC11908140
